T1: D2-BGL (WT D2; Pp D2-BGL) (Chaetomella raphigera, UniProt A0A068FT77)
T1 construct: 722 residues, 76 kDa theoretical; alpha-mating factor secretion signal upstream (pGAPZalphaC-D2); expressed in Pichia pastoris SMD 1168; glycosylated
T1 sequence (A0A068FT77 1-722): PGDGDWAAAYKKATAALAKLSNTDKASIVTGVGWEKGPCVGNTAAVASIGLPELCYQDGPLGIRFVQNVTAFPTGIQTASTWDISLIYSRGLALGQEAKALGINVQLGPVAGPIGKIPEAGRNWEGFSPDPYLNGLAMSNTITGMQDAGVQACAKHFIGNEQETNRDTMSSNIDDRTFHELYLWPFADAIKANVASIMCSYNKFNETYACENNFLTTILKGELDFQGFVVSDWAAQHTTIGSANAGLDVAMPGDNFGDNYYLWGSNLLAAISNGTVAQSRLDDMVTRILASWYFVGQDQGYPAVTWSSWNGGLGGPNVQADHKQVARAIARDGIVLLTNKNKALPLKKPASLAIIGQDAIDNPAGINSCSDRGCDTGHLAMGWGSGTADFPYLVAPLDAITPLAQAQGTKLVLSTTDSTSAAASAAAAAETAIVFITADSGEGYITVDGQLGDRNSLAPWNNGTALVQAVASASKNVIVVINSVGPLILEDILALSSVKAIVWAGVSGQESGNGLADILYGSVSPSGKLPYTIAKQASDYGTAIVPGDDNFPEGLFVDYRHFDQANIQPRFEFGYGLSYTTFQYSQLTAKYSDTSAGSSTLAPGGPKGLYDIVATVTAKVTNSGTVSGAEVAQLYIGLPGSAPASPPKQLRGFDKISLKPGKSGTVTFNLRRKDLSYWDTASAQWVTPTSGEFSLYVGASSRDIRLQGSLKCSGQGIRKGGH


Tests used:
[1] = target: T2, D2-BGL (WT D2; Pp D2-BGL) (Chaetomella raphigera, UniProt A0A068FT77, D224G/F256M/Y260D); assay: inhibition of pNPG hydrolysis with […] glucose; format: biochemical; conditions: pNPG as substrate; 50 mM NaOAc pH 5, 55 °C; product inhibition; read-out: Mut M
T2 construct: 722 residues, 76 kDa theoretical; alpha-mating factor secretion signal upstream (pGAPZalphaC-D2); expressed in Pichia pastoris SMD 1168; glycosylated

[2] = target: T1, D2-BGL (WT D2; Pp D2-BGL); assay: inhibition of pNPG hydrolysis with […] glucose; format: biochemical; conditions: pNPG as substrate; 50 mM NaOAc pH 5, 55 °C; product inhibition
[3] = target: T2, D2-BGL (WT D2; Pp D2-BGL); assay: p-nitrophenol release at […] nm, […] pNPG, substrate inhibition fit; format: biochemical; conditions: 50 mM NaOAc pH 5, 55 °C
purified protein = substrate: O=[N+]([O-])c1ccc(O[C@@H]2O[C@H](CO)[C@@H](O)[C@H](O)[C@H]2O)cc1; assay: purified protein; conditions: 50 mM NaOAc pH 5, 55 °C

Ki [1]	Ki [2]	kinetic constant from substrate inhibition fit [3]	Molecule	Km (purified protein)	Vmax (purified protein)
1590 ± 70 µM	3230 ± 1080 µM	–	OC[C@H]1OC(O)[C@H](O)[C@@H](O)[C@@H]1O (stereo partly shown) [glucose]	–	–
–	–	3.21 ± 0.56 mM	O=[N+]([O-])c1ccc(O[C@@H]2O[C@H](CO)[C@@H](O)[C@H](O)[C@H]2O)cc1 [pNPG, p-nitrophenyl β-D-glucopyranoside]	–	–

More lines, now with the values behind:

Molecule	Ki [1]	Ki [2]	kinetic constant from substrate inhibition fit [3]	Km (purified protein)	Vmax (purified protein)
D2-BGL (WT D2; Pp D2-BGL) (Chaetomella raphigera) (protein) PGDGDWAAAYKKATAALAKLSNTDKASIVTGVGWEKGPCVGNTAAVASIGLPELCYQDGPLGIRFVQNVTAFPTGIQTASTWDISLIYSRGLALGQEAKALGINVQLGPVAGPIGKIPEAGRNWEGFSPDPYLNGLAMSNTITGMQDAGVQACAKHFIGNEQETNRDTMSSNIDDRTFHELYLWPFADAIKANVASIMCSYNKFNETYACENNFLTTILKGELDFQGFVVSDWAAQHTTIGSANAGLDVAMPGDNFGDNYYLWGSNLLAAISNGTVAQSRLDDMVTRILASWYFVGQDQGYPAVTWSSWNGGLGGPNVQADHKQVARAIARDGIVLLTNKNKALPLKKPASLAIIGQDAIDNPAGINSCSDRGCDTGHLAMGWGSGTADFPYLVAPLDAITPLAQAQGTKLVLSTTDSTSAAASAAAAAETAIVFITADSGEGYITVDGQLGDRNSLAPWNNGTALVQAVASASKNVIVVINSVGPLILEDILALSSVKAIVWAGVSGQESGNGLADILYGSVSPSGKLPYTIAKQASDYGTAIVPGDDNFPEGLFVDYRHFDQANIQPRFEFGYGLSYTTFQYSQLTAKYSDTSAGSSTLAPGGPKGLYDIVATVTAKVTNSGTVSGAEVAQLYIGLPGSAPASPPKQLRGFDKISLKPGKSGTVTFNLRRKDLSYWDTASAQWVTPTSGEFSLYVGASSRDIRLQGSLKCSGQGIRKGGH	–	–	–	310 ± 140 µM	575 µM/min
D2-BGL (WT D2; Pp D2-BGL) (Chaetomella raphigera; D224G/F256M/Y260D) (protein) PGDGDWAAAYKKATAALAKLSNTDKASIVTGVGWEKGPCVGNTAAVASIGLPELCYQDGPLGIRFVQNVTAFPTGIQTASTWDISLIYSRGLALGQEAKALGINVQLGPVAGPIGKIPEAGRNWEGFSPDPYLNGLAMSNTITGMQDAGVQACAKHFIGNEQETNRDTMSSNIDDRTFHELYLWPFADAIKANVASIMCSYNKFNETYACENNFLTTILKGELGFQGFVVSDWAAQHTTIGSANAGLDVAMPGDNMGDNDYLWGSNLLAAISNGTVAQSRLDDMVTRILASWYFVGQDQGYPAVTWSSWNGGLGGPNVQADHKQVARAIARDGIVLLTNKNKALPLKKPASLAIIGQDAIDNPAGINSCSDRGCDTGHLAMGWGSGTADFPYLVAPLDAITPLAQAQGTKLVLSTTDSTSAAASAAAAAETAIVFITADSGEGYITVDGQLGDRNSLAPWNNGTALVQAVASASKNVIVVINSVGPLILEDILALSSVKAIVWAGVSGQESGNGLADILYGSVSPSGKLPYTIAKQASDYGTAIVPGDDNFPEGLFVDYRHFDQANIQPRFEFGYGLSYTTFQYSQLTAKYSDTSAGSSTLAPGGPKGLYDIVATVTAKVTNSGTVSGAEVAQLYIGLPGSAPASPPKQLRGFDKISLKPGKSGTVTFNLRRKDLSYWDTASAQWVTPTSGEFSLYVGASSRDIRLQGSLKCSGQGIRKGGH	–	–	–	180 ± 50 µM	374 µM/min

From publication PMC8166090, “Improvements of the productivity and saccharification efficiency of the cellulolytic β-glucosidase D2-BGL in Pichia pastoris via directed evolution” (Biotechnology for Biofuels, 2021)
